Source: paper PMC5919673, “Effector gene birth in plant parasitic nematodes: Neofunctionalization of a housekeeping glutathione synthetase gene” (PLoS Genetics, 2018)
Blank lines part the entries; values can stand above or below the compound they belong to.

How the values were obtained:
St-GSS1 = molecular target: T1, St-GSS1 (Solanum tuberosum, UniProt M1CSC4); test: malachite green phosphate release from ATP; assay type: biochemical; details: glycine, 20 mM MgCl2, 5 mM DTT, 100 mM HEPES pH 7.5, 30 °C
T1 construct: gene LOC102589405; His6-SUMO tag cleaved by 3C protease (pOPINS3C); E. coli SHuffle; homodimer, about 50 kDa per subunit
T1 sequence (M1CSC4 1-483): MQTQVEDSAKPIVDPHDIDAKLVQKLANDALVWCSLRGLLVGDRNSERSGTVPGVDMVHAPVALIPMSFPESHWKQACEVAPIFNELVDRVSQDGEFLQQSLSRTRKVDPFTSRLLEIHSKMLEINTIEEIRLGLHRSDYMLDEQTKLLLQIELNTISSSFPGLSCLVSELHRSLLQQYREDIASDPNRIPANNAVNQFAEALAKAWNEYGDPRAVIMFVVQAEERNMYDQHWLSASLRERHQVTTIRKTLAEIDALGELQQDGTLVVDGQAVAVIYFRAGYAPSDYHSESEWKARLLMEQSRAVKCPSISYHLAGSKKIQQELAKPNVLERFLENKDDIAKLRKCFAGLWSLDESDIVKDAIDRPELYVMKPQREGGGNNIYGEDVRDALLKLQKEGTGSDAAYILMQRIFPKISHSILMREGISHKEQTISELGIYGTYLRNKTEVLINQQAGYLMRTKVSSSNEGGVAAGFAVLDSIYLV

Gpa-GSS1 = molecular target: T2, Gpa-GSS1 (Globodera pallida, UniProt A0A183BS86); test: malachite green phosphate release from ATP; assay type: biochemical; details: glycine, 20 mM MgCl2, 5 mM DTT, 100 mM HEPES pH 7.5, 30 °C
T2 construct: full-length; His6-SUMO tag cleaved by 3C protease (pOPINS3C); E. coli SHuffle; homodimer, about 50 kDa per subunit

[1] = molecular target: Globodera pallida Clade 1 glutathione synthetase Gpa-GSS1 (Globodera pallida); test: SEC; S200 analytical gel filtration column; purified proteins migrate between the 150 kDa and 75 kDa protein standards, at a mass consistent with a homodimer (50 kDa per subunit)
[2] = molecular target: Globodera pallida Clade 2 glutathione synthetase Gpa-GSS5 (Globodera pallida); test: as above
[3] = molecular target: Globodera pallida Clade 3 GS-like effector Gpa-GSS12 (Globodera pallida); test: as above
[4] = molecular target: Globodera pallida Clade 3 GS-like effector Gpa-GSS17 (Globodera pallida); test: as above
[5] = molecular target: Globodera pallida Clade 3 GS-like effector Gpa-GSS22 (Globodera pallida); test: as above
[6] = molecular target: Globodera pallida Clade 3 GS-like effector Gpa-GSS24 (Globodera pallida); test: as above
[7] = molecular target: Globodera pallida Clade 3 GS-like effector Gpa-GSS30 (Globodera pallida); test: as above
[8] = molecular target: Solanum tuberosum glutathione synthetase St-GSS1 (Solanum tuberosum); test: as above

Compound: N[C@@H](CCC(=O)N[C@@H](CS)C(=O)O)C(=O)O [γ-EC]
Km (St-GSS1): The Km for γ-EC for canonical GS enzymes.
Km (Gpa-GSS1): The Km for γ-EC for canonical GS enzymes.

stoichiometry N [1]: 2
Compound: Globodera pallida Clade 1 glutathione synthetase Gpa-GSS1 (enzyme)

stoichiometry N [2]: 2
Compound: Globodera pallida Clade 2 glutathione synthetase Gpa-GSS5 (enzyme)

Compound: Globodera pallida Clade 3 GS-like effector Gpa-GSS12 (natural protein)
stoichiometry N [3]: 2

Compound: Globodera pallida Clade 3 GS-like effector Gpa-GSS17 (natural protein)
stoichiometry N [4]: 2

Compound: Globodera pallida Clade 3 GS-like effector Gpa-GSS22 (natural protein)
stoichiometry N [5]: 2

Compound: Globodera pallida Clade 3 GS-like effector Gpa-GSS24 (natural protein)
stoichiometry N [6]: 2

Compound: Globodera pallida Clade 3 GS-like effector Gpa-GSS30 (natural protein)
stoichiometry N [7]: 2

stoichiometry N [8]: 2
Compound: Solanum tuberosum glutathione synthetase St-GSS1 (enzyme)
